For this data set, the target named is T1, BmEcR (ecdysone receptor);BmUSP (ultraspiracle) (Bombyx mori;Bombyx mori, UniProt P49881;P49700 1-606;1-462, |).
T1 sequence 1: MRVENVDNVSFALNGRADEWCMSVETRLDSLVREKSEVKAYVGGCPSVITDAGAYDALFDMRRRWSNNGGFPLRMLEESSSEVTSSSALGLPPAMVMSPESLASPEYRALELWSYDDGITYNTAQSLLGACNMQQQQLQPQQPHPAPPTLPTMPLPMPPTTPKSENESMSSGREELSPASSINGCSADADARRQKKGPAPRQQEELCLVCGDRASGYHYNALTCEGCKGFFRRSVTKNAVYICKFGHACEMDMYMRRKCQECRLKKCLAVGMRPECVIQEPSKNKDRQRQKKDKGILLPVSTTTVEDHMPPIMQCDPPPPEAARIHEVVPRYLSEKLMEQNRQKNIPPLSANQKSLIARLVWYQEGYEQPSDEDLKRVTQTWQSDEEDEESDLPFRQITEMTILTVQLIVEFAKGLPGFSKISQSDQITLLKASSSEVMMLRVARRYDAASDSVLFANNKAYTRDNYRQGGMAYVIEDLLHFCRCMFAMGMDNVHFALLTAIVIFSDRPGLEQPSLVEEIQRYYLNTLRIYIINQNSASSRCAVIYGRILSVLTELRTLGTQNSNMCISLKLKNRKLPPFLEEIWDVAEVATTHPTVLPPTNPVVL
T1 sequence 2: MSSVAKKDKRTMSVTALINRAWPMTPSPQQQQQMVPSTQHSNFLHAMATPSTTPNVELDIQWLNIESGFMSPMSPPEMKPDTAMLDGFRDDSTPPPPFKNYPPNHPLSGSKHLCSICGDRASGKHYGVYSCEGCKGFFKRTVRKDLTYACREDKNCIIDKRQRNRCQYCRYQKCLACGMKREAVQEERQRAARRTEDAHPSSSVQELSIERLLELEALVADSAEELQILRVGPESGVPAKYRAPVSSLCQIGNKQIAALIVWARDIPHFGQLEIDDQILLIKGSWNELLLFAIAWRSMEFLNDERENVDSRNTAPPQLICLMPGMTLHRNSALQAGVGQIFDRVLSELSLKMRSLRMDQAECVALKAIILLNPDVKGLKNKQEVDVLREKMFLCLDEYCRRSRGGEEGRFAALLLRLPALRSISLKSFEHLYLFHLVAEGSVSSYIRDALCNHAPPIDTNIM
In words: EMSA; EMSA: 25 C for 25 min; Beyotime chemiluminescent EMSA kit (binding buffer not stated); 5% native PAGE in Tris-borate-EDTA (45 mM Tris-borate, 1 mM EDTA, pH 8.3); probe 5 uM, BmEcR 0.3 ug/uL, BmUSP 0.45 ug/uL. To be noted: protein: recombinant;recombinant; tags: ;; copies: 1;1; label: 3'-biotin; blunt. (A gel shift assay detects complexes by their altered migration in electrophoresis.)

B1: EcRE-like 3 probe (Bio-ERRE-3) (dsDNA)
DNA 1: GTTCCGAAATAAAATTACCTGATGGTA
DNA 2: TACCATCAGGTAATTTTATTTCGGAAC
Consider B1, for which the binding result is listed as “no binding”.

B2: EcRE-like 2 probe (Bio-ERRE-2) (dsDNA)
DNA 1: TAAAGAACCTTTATTAAAATTAAAATA
DNA 2: TATTTTAATTTTAATAAAGGTTCTTTA
With B2, the binding result is “no binding”.

B3: EcRE-like 8 probe (Bio-ERRE-8) (dsDNA)
DNA 1: GAGACAGCGTTAGCTGATATTCTAAAT
DNA 2: ATTTAGAATATCAGCTAACGCTGTCTC
Regarding B3, the binding result is recorded as “no binding”.

B4: EcRE-like 1 mutant probe (Bio-ERRE-1 mut) (dsDNA)
DNA 1: ATTAGACGATGACGGGTCATGACCT
DNA 2: AGGTCATGACCCGTCATCGTCTAAT
As to B4, the binding result is on record as “no binding”.

B5: EcRE-like 1 probe (Bio-ERRE-1) (dsDNA)
DNA 1: ATTAAGTAGCAGTAAACTGTGACCT
DNA 2: AGGTCACAGTTTACTGCTACTTAAT
As to B5, the binding result is reported as “binds”.

For the origin of these results see PMC8804299, “The Response of the Estrogen-Related Receptor to 20-Hydroxyecdysone in Bombyx mori: Insight Into the Function of Estrogen-Related Receptor in Insect 20-Hydroxyecdysone Signaling Pathway”.
